Results on five molecules are retold here after US20260242735A1 (UNIVERSIT T BASEL, published 2026).

The target of assay [1] is T1, human wild-type CD33 (human, UniProt P20138 18-364).
T1 construct: also called SIGLEC3; P67
The assay is described as follows: flow cytometry, Fab at 0.25 ug/ml on HEK293-T cells expressing CD33 against vector alone. Background: In flow cytometry, cells or beads pass a laser one at a time.

In assay [2] the target is CD33 variant W22D (recombinant, biotinylated) (human, UniProt P20138 18-259, biotinylated with EZ-Link Sulfo-NHS-LC-Biotin (sites not given)). Put plainly: BLI (Octet R8), avidity format: biotinylated CD33 on streptavidin sensor, Refmab #1 as analyte at 300 or 500 nM.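 Note: sensorgrams recorded with a 300 s analyte association phase followed by a 900 s dissociation phase.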 For orientation: In BLI a coated tip is dipped into the sample, and binding shifts an interference pattern.
Chain of CD33 variant W22D (recombinant, biotinylated) (P20138 other isoform, or with tags, fused parts or gaps W22D W22D): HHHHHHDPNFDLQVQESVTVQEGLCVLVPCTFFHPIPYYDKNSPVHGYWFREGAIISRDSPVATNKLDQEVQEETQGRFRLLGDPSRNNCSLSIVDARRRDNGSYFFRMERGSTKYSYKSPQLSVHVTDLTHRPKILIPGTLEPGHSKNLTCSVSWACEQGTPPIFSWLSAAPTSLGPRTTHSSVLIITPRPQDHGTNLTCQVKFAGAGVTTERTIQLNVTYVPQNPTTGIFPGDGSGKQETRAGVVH

Assay [3] addresses CD33 variant N20E (recombinant, biotinylated) (human, UniProt P20138 21-259, biotinylated with EZ-Link Sulfo-NHS-LC-Biotin (sites not given)). The assay is described as above.
Assay [4] has as its target CD33 variant F21I (recombinant, biotinylated) (human, UniProt P20138 22-259, biotinylated with EZ-Link Sulfo-NHS-LC-Biotin (sites not given)). The description is as above.
In assay [5] the target is CD33 variant Y50K (recombinant, biotinylated) (human, UniProt P20138 18-259, biotinylated with EZ-Link Sulfo-NHS-LC-Biotin (sites not given)). The description is as above.
Chain of CD33 variant Y50K (recombinant, biotinylated) (P20138 other isoform, or with tags, fused parts or gaps Y50K Y50K): as the sequence (P20138 other isoform, or with tags, fused parts or gaps W22D W22D) above, with D11W, Y39K counted along it
Assay [6] has as its target CD33 variant W22R (recombinant, biotinylated) (human, UniProt P20138 18-259, biotinylated with EZ-Link Sulfo-NHS-LC-Biotin (sites not given)). The description is as above.
Assay [7] has as its target CD33 variant F21M (recombinant, biotinylated) (human, UniProt P20138 22-259, biotinylated with EZ-Link Sulfo-NHS-LC-Biotin (sites not given)). The description is as above.
Assay [8] concerns the target CD33 variant F44P (recombinant, biotinylated) (human, UniProt P20138 18-259, biotinylated with EZ-Link Sulfo-NHS-LC-Biotin (sites not given)). The description is as above.
Assay [9] deals with T2, CD33 wild type (recombinant, biotinylated) (human, UniProt P20138 18-259, biotinylated with EZ-Link Sulfo-NHS-LC-Biotin (sites not given)).
T2 construct: also called WT; CD33 wt
The assay is described as above.

The target of assay [10] is CD33 variant F21L (recombinant, biotinylated) (human, UniProt P20138 22-259, biotinylated with EZ-Link Sulfo-NHS-LC-Biotin (sites not given)). The assay is described as above.
Chain of CD33 variant F21L (recombinant, biotinylated) (P20138 other isoform, or with tags, fused parts or gaps F21L F21L): as the sequence (P20138 other isoform, or with tags, fused parts or gaps W22D W22D) above, with F10L, D11W counted along it
Assay [11] has as its target CD33 variant N20G (recombinant, biotinylated) (human, UniProt P20138 21-259, biotinylated with EZ-Link Sulfo-NHS-LC-Biotin (sites not given)). The description is as above.
In assay [12] the target is CD33 variant F21N (recombinant, biotinylated) (human, UniProt P20138 22-259, biotinylated with EZ-Link Sulfo-NHS-LC-Biotin (sites not given)). The assay is described as above.
Chain of CD33 variant F21N (recombinant, biotinylated) (P20138 other isoform, or with tags, fused parts or gaps F21N F21N): as the sequence (P20138 other isoform, or with tags, fused parts or gaps W22D W22D) above, with F10N, D11W counted along it
In assay [13] the target is CD33 variant F21Q (recombinant, biotinylated) (human, UniProt P20138 22-259, biotinylated with EZ-Link Sulfo-NHS-LC-Biotin (sites not given)). The assay is described as above.
Assay [14] addresses CD33 variant F21H (recombinant, biotinylated) (human, UniProt P20138 22-259, biotinylated with EZ-Link Sulfo-NHS-LC-Biotin (sites not given)). The assay is described as above.
Assay [15] deals with CD33 variant N20H (recombinant, biotinylated) (human, UniProt P20138 21-259, biotinylated with EZ-Link Sulfo-NHS-LC-Biotin (sites not given)). The assay is described as above.
The target in assay [16] is CD33 double variant Y50H_H49H (recombinant, biotinylated) (human, UniProt P20138 18-259, biotinylated with EZ-Link Sulfo-NHS-LC-Biotin (sites not given)). The description is as above.
Chain of CD33 double variant Y50H_H49H (recombinant, biotinylated) (P20138 other isoform, or with tags, fused parts or gaps Y50H H49H Y50H H49H): as the sequence (P20138 other isoform, or with tags, fused parts or gaps W22D W22D) above, with D11W, Y38H, Y39H counted along it
Assay [17] concerns the target CD33 variant Y50D (recombinant, biotinylated) (human, UniProt P20138 18-259, biotinylated with EZ-Link Sulfo-NHS-LC-Biotin (sites not given)). The assay is described as above.
For assay [18], the target named is CD33 variant W22E (recombinant, biotinylated) (human, UniProt P20138 18-259, biotinylated with EZ-Link Sulfo-NHS-LC-Biotin (sites not given)). Described as above.
Chain of CD33 variant W22E (recombinant, biotinylated) (P20138 other isoform, or with tags, fused parts or gaps W22E W22E): as the sequence (P20138 other isoform, or with tags, fused parts or gaps W22D W22D) above, with D11E counted along it
Assay [19] deals with CD33 variant F21V (recombinant, biotinylated) (human, UniProt P20138 22-259, biotinylated with EZ-Link Sulfo-NHS-LC-Biotin (sites not given)). The assay is described as above.
Chain of CD33 variant F21V (recombinant, biotinylated) (P20138 other isoform, or with tags, fused parts or gaps F21V F21V): as the sequence (P20138 other isoform, or with tags, fused parts or gaps W22D W22D) above, with F10V, D11W counted along it
Assay [20] concerns the target CD33 variant N20V (recombinant, biotinylated) (human, UniProt P20138 21-259, biotinylated with EZ-Link Sulfo-NHS-LC-Biotin (sites not given)). The description is as above.
In assay [21] the target is CD33 variant W22K (recombinant, biotinylated) (human, UniProt P20138 18-259, biotinylated with EZ-Link Sulfo-NHS-LC-Biotin (sites not given)). The assay is described as above.
Chain of CD33 variant W22K (recombinant, biotinylated) (P20138 other isoform, or with tags, fused parts or gaps W22K W22K): as the sequence (P20138 other isoform, or with tags, fused parts or gaps W22D W22D) above, with D11K counted along it
The target in assay [22] is CD33 variant W22T (recombinant, biotinylated) (human, UniProt P20138 18-259, biotinylated with EZ-Link Sulfo-NHS-LC-Biotin (sites not given)). Described as above.
Chain of CD33 variant W22T (recombinant, biotinylated) (P20138 other isoform, or with tags, fused parts or gaps W22T W22T): as the sequence (P20138 other isoform, or with tags, fused parts or gaps W22D W22D) above, with D11T counted along it
The target of assay [23] is CD33 variant N20K (recombinant, biotinylated) (human, UniProt P20138 21-259, biotinylated with EZ-Link Sulfo-NHS-LC-Biotin (sites not given)). Described as above.
The target of assay [24] is CD33 variant Y50R (recombinant, biotinylated) (human, UniProt P20138 18-259, biotinylated with EZ-Link Sulfo-NHS-LC-Biotin (sites not given)). The description is as above.
Chain of CD33 variant Y50R (recombinant, biotinylated) (P20138 other isoform, or with tags, fused parts or gaps Y50R Y50R): as the sequence (P20138 other isoform, or with tags, fused parts or gaps W22D W22D) above, with D11W, Y39R counted along it
Assay [25] concerns the target CD33 variant F21S (recombinant, biotinylated) (human, UniProt P20138 22-259, biotinylated with EZ-Link Sulfo-NHS-LC-Biotin (sites not given)). Described as above.
Assay [26] deals with T1, human wild-type CD33. Put plainly: flow cytometry, IgG at 0.25 ug/ml on HEK293-T cells expressing CD33 against vector alone.
Assay [27] addresses T1, human wild-type CD33. The assay is described as follows: flow cytometry, IgG at 0.50 ug/ml on HEK293-T cells expressing CD33 against vector alone.
In assay [28] the target is T1, human wild-type CD33. Put plainly: flow cytometry, Fab at 0.25 ug/ml on HEK293-T cells expressing CD33 against vector alone. This is another data set of the same source.

T1 sequence (P20138 18-364 limits assumed): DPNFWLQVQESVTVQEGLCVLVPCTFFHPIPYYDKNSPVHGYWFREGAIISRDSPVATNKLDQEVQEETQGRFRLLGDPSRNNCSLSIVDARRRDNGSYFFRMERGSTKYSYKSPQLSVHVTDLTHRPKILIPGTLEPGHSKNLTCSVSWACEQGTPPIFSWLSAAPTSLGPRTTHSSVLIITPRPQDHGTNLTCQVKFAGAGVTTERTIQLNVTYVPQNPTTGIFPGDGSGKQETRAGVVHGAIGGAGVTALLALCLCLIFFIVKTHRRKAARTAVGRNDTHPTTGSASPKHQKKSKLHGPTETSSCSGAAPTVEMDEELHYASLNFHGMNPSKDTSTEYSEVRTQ
Chain of CD33 variant N20G (recombinant, biotinylated) (P20138 other isoform, or with tags, fused parts or gaps N20G N20G): as the sequence (P20138 other isoform, or with tags, fused parts or gaps W22D W22D) above, with N9G, D11W counted along it
Chain of CD33 variant F44P (recombinant, biotinylated) (P20138 other isoform, or with tags, fused parts or gaps F44P F44P): as the sequence (P20138 other isoform, or with tags, fused parts or gaps W22D W22D) above, with D11W, F33P counted along it
Chain of CD33 variant F21M (recombinant, biotinylated) (P20138 other isoform, or with tags, fused parts or gaps F21M F21M): as the sequence (P20138 other isoform, or with tags, fused parts or gaps W22D W22D) above, with F10M, D11W counted along it
Chain of CD33 variant F21H (recombinant, biotinylated) (P20138 other isoform, or with tags, fused parts or gaps F21H F21H): as the sequence (P20138 other isoform, or with tags, fused parts or gaps W22D W22D) above, with F10H, D11W counted along it
Chain of CD33 variant F21S (recombinant, biotinylated) (P20138 other isoform, or with tags, fused parts or gaps F21S F21S): as the sequence (P20138 other isoform, or with tags, fused parts or gaps W22D W22D) above, with F10S, D11W counted along it
Chain of CD33 variant N20E (recombinant, biotinylated) (P20138 other isoform, or with tags, fused parts or gaps N20E N20E): as the sequence (P20138 other isoform, or with tags, fused parts or gaps W22D W22D) above, with N9E, D11W counted along it
Chain of CD33 variant Y50D (recombinant, biotinylated) (P20138 other isoform, or with tags, fused parts or gaps Y50D Y50D): as the sequence (P20138 other isoform, or with tags, fused parts or gaps W22D W22D) above, with D11W, Y39D counted along it

B1: Refmab #1 Fab fragment (Fab, V domains shown)
VH: EVQLVQSGAEVKKPGSSVKVSCKASGYTITDSNIHWVRQAPGQSLEWIGYIYPYNGGTDYNQKFKNRATLTVDNPTNTAYMELSSLRSEDTAFYYCVNGNPWLAYWGQGTLVTVSS
VL: DIQLTQSPSTLSASVGDRVTITCRASESLDNYGIRFLTWFQQKPGKAPKLLMYAASNQGSGVPSRFSGSGSGTEFTLTISSLQPDDFATYYCQQTKEVPWSFGQGTKVEVK
For the molecule B1, in the assay with human wild-type CD33 [1], the “Signal:Background” value is 33 signal:background ratio.

B2: Refmab #1 (antibody, human IgG1, V domains shown)
VH: B1 VH
VL: B1 VL
notes: also called hP67.6; Absolute Antibody Cat. No. Ab00283-10.0
With B2, the “% WT binding” value in assay [2] worked out at 12.7 % WT binding; in assay [3], 5.59 % WT binding; in assay [4] it was 0 % WT binding; in [5], 86.6 % WT binding; in [6], 51.9 % WT binding; in assay [7] it was 6.62 % WT binding. For the same molecule, the “% WT binding” value in [8] worked out at 2 % WT binding; in assay [9], 100 % WT binding; in assay [10], 12.2 % WT binding; in assay [11] it was 9.44 % WT binding; in [12], 0 % WT binding; in assay [13], 0 % WT binding. For the same molecule, the “% WT binding” value in assay [14] is 10.4 % WT binding; in assay [15], 32.9 % WT binding; in [16], 95.8 % WT binding; in assay [17], 131 % WT binding; in [18], 67.5 % WT binding; in assay [19], 5.41 % WT binding. For the same molecule, the “% WT binding” value was 29.3 % WT binding in [20]; 22.4 % WT binding in assay [21]; 37.5 % WT binding in assay [22]; 6.79 % WT binding in assay [23]; 108 % WT binding in [24]; 9.03 % WT binding in assay [25].

B3: Refmab #5 (antibody, human IgG1, V domains shown)
VH: QVQLVQSGAEVKKPGASVKVSCKASGYTFTNYDINWVRQAPGQGLEWIGWIYPGDGSTKYNEKFKAKATLTADTSTSTAYMELRSLRSDDTAVYYCASGYEDAMDYWGQGTTVTVSS
VL: DIQMTQSPSSLSASVGDRVTINCKASQDINSYLSWFQQKPGKAPKTLIYRANRLVDGVPSRFSGSGSGQDYTLTISSLQPEDFATYYCLQYDEFPLTFGGGTKVEIK
notes: Full-length MAb format, human IgG1 Fc silent (PG-LALA)
Take B3: the “Signal:Background” value in the assay with human wild-type CD33 [26] was 37 signal:background ratio.

B4: Refmab #6 (antibody, human IgG1, V domains shown)
VH: QVQLQQPGAEVVKPGASVKMSCKASGYTFTSYYIHWIKQTPGQGLEWVGVIYPGNDDISYNQKFQGKATLTADKSSTTAYMQLSSLTSEDSAVYYCAREVRLRYFDVWGQGTTVTVSS
VL: EIVLTQSPGSLAVSPGERVTMSCKSSQSVFFSSSQKNYLAWYQQIPGQSPRLLIYWASTRESGVPDRFTGSGSGTDFTLTISSVQPEDLAIYYCHQYLSSRTFGQGTKLEIK
notes: as for B3
With B4, the “Signal:Background” value in the assay with human wild-type CD33 [27] was 57 signal:background ratio.

B5: Refmab #6 Fab fragment (Fab, V domains shown)
VH: B4 VH
VL: B4 VL
With B5, the “Signal:Background” value in the assay with human wild-type CD33 [28] was 51 signal:background ratio.
